Assay results from US6150090.

Target: IgNF-A (NF-A1), ubiquitous octamer-binding protein (Homo sapiens) (UniProt P14859)
Experiment: EMSA
Settings: affinity over heterologous plasmid DNA; poly(dI-dC) carrier; DNase I footprint -72 to -52

Chain of IgNF-A (NF-A1), ubiquitous octamer-binding protein (Homo sapiens) (P14859 whole entry): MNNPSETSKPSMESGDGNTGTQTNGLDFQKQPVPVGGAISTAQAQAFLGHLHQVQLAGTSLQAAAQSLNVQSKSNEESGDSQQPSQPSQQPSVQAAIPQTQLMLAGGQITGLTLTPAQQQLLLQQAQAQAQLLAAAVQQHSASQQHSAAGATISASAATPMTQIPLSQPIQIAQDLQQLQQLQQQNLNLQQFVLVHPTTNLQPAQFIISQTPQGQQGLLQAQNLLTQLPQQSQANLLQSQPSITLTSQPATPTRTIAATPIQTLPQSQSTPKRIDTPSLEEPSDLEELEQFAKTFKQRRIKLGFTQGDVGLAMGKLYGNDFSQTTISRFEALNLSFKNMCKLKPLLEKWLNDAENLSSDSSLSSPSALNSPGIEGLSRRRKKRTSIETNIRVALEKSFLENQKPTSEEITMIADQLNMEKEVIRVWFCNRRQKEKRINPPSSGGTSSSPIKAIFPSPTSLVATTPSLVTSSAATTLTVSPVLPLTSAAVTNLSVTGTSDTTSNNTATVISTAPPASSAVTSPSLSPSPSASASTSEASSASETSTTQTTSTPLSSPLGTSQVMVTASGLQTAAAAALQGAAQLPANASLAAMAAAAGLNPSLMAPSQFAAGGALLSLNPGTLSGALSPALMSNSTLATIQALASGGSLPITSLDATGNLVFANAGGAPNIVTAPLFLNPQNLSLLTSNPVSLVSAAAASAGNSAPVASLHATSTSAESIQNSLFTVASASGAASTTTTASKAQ

Which binding signal does the source give for “MOPC41 V kappa promoter PvuII-SfaNI fragment” here?
The binding signal was > 10000 fold.
